Laboratory results: patent publication US20250042994A1 (HAINAN SIMCERE ZAIMING PHARMACEUTICAL, published 2025)
Changes are numbered by the printed parent chain.

T1: cynomolgus monkey CD19 on peripheral blood B cells (cynomolgus monkey (Macaca fascicularis), UniProt A0A2K5W8L9 20-557)
T1 construct: whole, on cells; also called cynomolgus monkey B cells
T1 sequence: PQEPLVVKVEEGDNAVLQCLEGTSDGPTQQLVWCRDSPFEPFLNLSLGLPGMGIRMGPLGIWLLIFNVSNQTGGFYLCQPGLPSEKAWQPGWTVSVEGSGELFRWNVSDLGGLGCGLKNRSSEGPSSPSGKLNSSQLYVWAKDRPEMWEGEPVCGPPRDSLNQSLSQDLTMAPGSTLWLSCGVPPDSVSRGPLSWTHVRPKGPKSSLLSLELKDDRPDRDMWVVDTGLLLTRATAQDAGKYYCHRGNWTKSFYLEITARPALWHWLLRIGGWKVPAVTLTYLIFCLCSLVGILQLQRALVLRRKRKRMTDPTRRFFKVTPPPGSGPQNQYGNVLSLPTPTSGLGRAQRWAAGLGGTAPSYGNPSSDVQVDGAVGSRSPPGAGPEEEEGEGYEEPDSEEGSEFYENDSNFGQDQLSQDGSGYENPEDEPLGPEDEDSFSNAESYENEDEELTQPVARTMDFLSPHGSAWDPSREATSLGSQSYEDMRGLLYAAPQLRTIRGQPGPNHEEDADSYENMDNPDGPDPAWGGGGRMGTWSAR

T2: human CD19 on CHO-K1-human CD19 cells (human, UniProt P15391 20-556)
T2 construct: whole, on cells; also called CHO-K1-human CD19-2C8
T2 sequence (looked up): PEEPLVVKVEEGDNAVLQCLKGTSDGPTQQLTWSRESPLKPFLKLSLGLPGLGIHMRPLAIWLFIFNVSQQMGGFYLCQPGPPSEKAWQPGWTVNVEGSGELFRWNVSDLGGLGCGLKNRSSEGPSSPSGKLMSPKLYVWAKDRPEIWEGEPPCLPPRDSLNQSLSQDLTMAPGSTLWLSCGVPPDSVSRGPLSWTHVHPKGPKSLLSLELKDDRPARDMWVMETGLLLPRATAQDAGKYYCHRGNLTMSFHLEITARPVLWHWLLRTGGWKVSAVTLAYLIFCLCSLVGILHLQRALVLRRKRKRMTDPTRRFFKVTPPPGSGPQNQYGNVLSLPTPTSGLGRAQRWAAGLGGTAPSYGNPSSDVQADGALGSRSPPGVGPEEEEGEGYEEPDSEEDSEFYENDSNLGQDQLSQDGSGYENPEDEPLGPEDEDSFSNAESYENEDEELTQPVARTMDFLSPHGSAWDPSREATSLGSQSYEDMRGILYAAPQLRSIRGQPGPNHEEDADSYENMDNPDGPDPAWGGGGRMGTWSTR

T3: human CD19 on Raji cells (human, UniProt P15391 20-556)
T3 construct: whole, on cells
T3 sequence (looked up): T2 sequence (looked up)

B1: F3.3.10 (antibody, human IgG1, V domains shown)
VH: DVQLQESGPGLAKLSQSLSLTCSVTGYSITSGYYWNWIRQFPGNKLEWMGHISYDGNNNYNPSLKNRISITRDTSKNQFFLKLNSVTTEDTATYYCARENYSNYYFDYWGQGTTLTVSS
VL: DIVLTQSPASLAVSLGQRATISCRASQSVSKSSYTYIHWYQQKPGQPPKLLIKYASILQSGVPARFSGSGSGTDFTLNFHPVEEEDTATYYCQHSWEIPYTFGGGTKLEIK
notes: human-murine chimeric antibody, human IgG1
B2: F1-mab003 (antibody, human IgG1, V domains shown)
VH: EVQLQQSGPELVKPGASVKMSCKASGYTFTDYVMHWVRQTPGQGLEWIGYFNPYNDGTNYNEKFKVKATLTSDKSSTTAYMELSSLTSEDSAVYYCARGVYYYGRDFDYWGQGTTLTVSS
VL: DVVLTQTPLSLPVSLGDQASISCRSSQSLENSNGNSYLNWYLQKPGQSPQLLIYRVSNRFSGVLDRFSGSGSGTDFTLKISRVEAEDLGVYFCLQITHVPWTFGGGTKLEIK
notes: as for B1
B3: F3.13.2 (antibody, human IgG1, V domains shown)
VH: DVQLQESGPGLMKPSQSLSLTCSVTGYSITSGYYWNWIRQFPGNKLEWMGYISYDGSNNYNPSLKNRFSITRDTSKNQFFLKLNSVTTEDTATYYCARRKLTGGPYFDYWGQGTTLTVSS
VL: DIVLTQSPASLAVTLGQRATISCRASESVSFHGFHIMHWYQQKPGQPPKLLIYAASHLVSGVPDRFSGSGSETDFTLNIHPVEEEDAAAYFCQQSVEDPWTFGGGTKLEIK
notes: as for B1
B4: F3.64.4 (antibody, human IgG1, V domains shown)
VH: EVQLQQSGPELVKPGASVKISCKASGYTFTDYHINWVKQSHGKSPEWIGDINPNNGGTTYNQKFKDKATLTVDKSSSTAFMELRSLTSEDSAVYYCARFITTVVAWYFDVWGTGTTVTVSS
VL: DIQMTQSPASLSVSVGETVTITCRASENIYSNLAWYQQKQGKSPQLLVYAATNLADGVPSRFSGSGSGTQYSLKINSLQSEDFGNYYCQRFWDTPRTFGGGTKLEIK
notes: as for B1
B5: F2.15.26 (antibody, human IgG1, V domains shown)
VH: QVQLKESGPGLVAPSQSLSITCTVSGFSLTDYGVSWIRQSPGKGLEWLGVIWGSGDTYYNSVLESRLSINKDNSKNQVFLKMNSLQTDDAAMYFCAKHSYYGGSFAMDYWGQGTSVTVSS
VL: DIQMTQTTSSLSASLGDRVTISCRASQDISNYLNWYQQKPDGTVKLLIYYTSRLHSGVPSRFSGSGSGTDYSLTISNLEQEDIATYFCQQGKTLPWTFGGGTKLEIK
notes: as for B1
B6: F3.74.4 (antibody, human IgG1, V domains shown)
VH: QVQLQQSGAELVRPGASVTLSCKASGYTFTDYEMHWVKQTPVHGLEWIGGIAPETGLTTYNQKFEDKAILTADKSSRTAYMELRSLTSEDSAVYFCNPNNYGLWGTGTTVTVSS
VL: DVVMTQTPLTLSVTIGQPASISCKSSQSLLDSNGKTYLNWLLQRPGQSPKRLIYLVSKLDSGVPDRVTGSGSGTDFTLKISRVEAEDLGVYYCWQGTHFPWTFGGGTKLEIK
notes: as for B1
B7: F3.5.1 (antibody, human IgG1, V domains shown)
VH: QAQLQQSGPELVKPGASVKISCKASGYAFSGSWMNWVQQRPGKGLEWIGRIYPGDGDTYYNGKFKDKAILTADKSSSTAYMQLSSLTSEDSAVYFCAQLRYRYVMDYWGQGTSVTVSS
VL: DIVLTQSPASLAVSLGQRATISCRASESVSIHGSHLMHWYQQKPGQPPRLLIYAASNLESGVPARFSGSGSETDFTLNIHPVEEEDAATYFCQQGIKDPYTFGGGTKLEIK
notes: as for B1
B8: F3.40.14 (antibody, human IgG1, V domains shown)
VH: B7 VH with N61S, K74T, Y101S, T112A
VL: B7 VL with S34T, K97D
notes: as for B1

These binders were tested against T4, monkey CD19 on HEK293T-monkey CD19 cells (monkey) (assay: FACS on HEK293T-monkey CD19 cells).
T4 construct: whole, on cells
Method: (§1) After the digestion was terminated, the cells were washed 2 times with a PBS buffer; and for suspension cell Raji, the supernatant of the medium was discarded by directly centrifugation, and the cell pellet was washed 2 times with PBS. After counting the cells in the previous step, the cell pellet was resuspended with [PBS+2% (w/w) BSA] blocking solution to 2×10⁶ cells/ml, and added to a 96-well FACS reaction plate at 50 μl/well, and then the sample to be tested was added at 50 μl/well, and incubated on ice for 2 h. The obtained mixture was centrifuged and washed 3 times with a PBS buffer. […] The obtained mixture was centrifuged and washed 5 times with a PBS buffer, and FACS (FACS Canto™, purchased from BD Company) was used for detection and result analysis. Data analysis was performed by software (FlowJo) to obtain the mean fluorescence intensity (MFI) of the cells. And then software (GraphPad Prism8) was used for analysis, data fitting, and EC50 value calculation. […] The same method was used to detect the binding of the chimeric antibodies to endogenous CD19-negative cells, MoLT4 cells (purchased from ATCC, CRL-1582), and CHO-K1 cells.
HEK293T-monkey CD19 cells were subjected to FACS detection and data analysis according to the method in example 5.2. […] The same method was used to detect binding of the chimeric antibodies to HEK293T cells.

Binder | EC50 | Maximum mean fluorescence intensity
B1 | 2.08 nM | 173000
B2 | 1.76 nM | 75000
B3 | 2.64 nM | 66400
B4 | 3.99 nM | 98400
B5 | 16.7 nM | 28700
B6 |  | 121
B7 | 6.11 nM | 80000
B8 |  | 281

These binders were tested against T1, cynomolgus monkey CD19 on peripheral … (assay: FACS, cynomolgus PBMC, CD20+ B cells).
Method: The monkey peripheral blood mononuclear cells were extracted from fresh cynomolgus monkey peripheral blood (purchased from Shanghai Medicilon Inc.) according to the instructions of Ficoll-Paque Plus (purchased from GE Healthcae, catalog number: 171440-02). After the cell suspension was centrifuged, the cells were resuspended in PBS containing 1% BSA, and then the cells were counted. […] The mixture was incubated for 1 h at room temperature. After washing the cells three times, APC-labeled secondary antibody anti-human IgG Fc (catalog number: 409306, purchased from Biolegend) was added. After incubation at room temperature in the dark for 30 minutes, the cells were washed 5 times, gently resuspended with PBS containing 1% BSA, and detected and analyzed by FACS (FACS Canto™, purchased from BD Company), in which CD20 was used as a marker of B cells to gate the CD20-positive B cell population, the proportion of the chimeric antibody-labeled positive cells was analyzed, and the proportion of the chimeric antibody positive cell population to B cell population was calculated after treatments with the chimeric antibodies at the concentrations of 100 nM, 10 nM and 1 nM, respectively.

Binder | Proportion of chimeric antibody positive cells to B cells (%) at 1 nM | Proportion of chimeric antibody positive cells to B cells (%) at 10 nM | Proportion of chimeric antibody positive cells to B cells (%) at 100 nM
B1 | 38% | 91% | 99%
B2 | 15% | 32% | 59%
B3 | 1% | 3% | 8%
B4 | 1% | 2% | 9%
B5 | 2% | 6% | 22%
B6 | 1% | 1% | 1%
B7 | 6% | 15% | 23%
B8 | 1% | 1% | 5%

These binders were tested against T2, human CD19 on CHO-K1-human CD19 cells (assay: FACS on CHO-K1-human CD19 cells).
Source text: as §1, with “The desired cells were scale-up cultured in a T-75 cell culture flask to the logarithmic growth phase. For the adherent cell CHO-K1, the medium was aspirated, the cells were washed 2 times with a PBS buffer, and then digested with trypsin. After the” for “After the”

Binder | EC50 | Maximum mean fluorescence intensity
B1 | 1.9 nM | 48300
B2 | 0.69 nM | 66900
B3 | 2.46 nM | 43900
B4 | 0.61 nM | 63700
B5 | 0.71 nM | 60400
B6 | 4.55 nM | 3850
B7 | 2.49 nM | 49900
B8 | 6 nM | 49100

The binders below were run against T3, human CD19 on Raji cells (assay: FACS on Raji cells).
Source text: as §1, with “The desired cells were scale-up cultured in a T-75 cell culture flask to the logarithmic growth phase. For the adherent cell CHO-K1, the medium was aspirated, the cells were washed 2 times with a PBS buffer, and then digested with trypsin. After the” for “After the”

Binder | EC50 | Maximum mean fluorescence intensity
B1 | 2.9 nM | 29700
B2 | 0.57 nM | 33100
B3 | 5.24 nM | 27100
B4 | 0.43 nM | 35800
B5 | 0.53 nM | 29200
B6 | 3.41 nM | 30100
B7 | 1.47 nM | 24800
B8 | 2.59 nM | 27000
